Measurements as given in the nanobody polyreactivity screen of Harvey et al. (2022).

Experiment: yeast display, Sf9 membrane polyspecificity reagent, FACS + sequencing; frameworks hold sequencing errors
In short: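 Nanobodies from a synthetic yeast display library (Saccharomyces cerevisiae BJ5465), induced 36–48 hours with galactose, were stained 1 hour at 4 °C with 10% biotinylated, detergent-solubilized Sf9 membrane reagent, enriched on streptavidin microbeads, then FACS-sorted. Anti-HA (expression) and streptavidin (reagent binding) fluorescence set low and high (top ~1%) gates. Polyreactivity labels come from the gate of origin. Genes were colony-PCR amplified, MiSeq 2 × 250 sequenced and filtered by CDR length.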

| Sequence | polyreactivity (PSR sort gate) |
| --- | --- |
| QDQLVESGVGLVQAGGSLRLSCAASGFTFTRNAMGWYRQAPGKEREFVAAITRSGGSTYYADSVKGRFTISRDNAKNTVYLQMNSLKPEDTAVYYCAAEVSSFLYTPSYSTDDYWGQGTQVTVSS | high polyreactivity |
| QVQLGESGGGIVQAGGSLRLSCAASGRTLQQYVMGWYRQAPGKETELVAAITRGGRTNYADSVKGRFTISRDNAKNTVYLQRNSLKPEDTAVYYCNSRYPSRLVAWLDYWGQGTQVTVSS | low polyreactivity |
| QVQLVETGGGLVQAGGSLRLSSAASGSTFTYNVMGWYRQAPGKERELVAAISRIAGRTYYADSVKGRFTISRDTAKNTVYLQMNSLKPEDTAVYYCAALALKWRYDFWGQGTQVTVSS | high polyreactivity |
| QVQLVESGGGLVQAGGSLRLSCAASGSTLSKYAMGWYRQAPGKEREFVAAISRSGGSTYYADSVKGRFTISRDKAKNTVYLQMNSLKPEDTAVYYCAKVLRTFSGLYYWGQGTQVTVSS | high polyreactivity |
| QVQLVESGGGLVQAGGSLRLSCAASGRIFGDYAMGGSRQAPGKERELVAVISVGGRTSYADSVKGRFTISRDNAKNTVYLQMNSLKPEDTAVYYCATRLSTRDGGYWGQGTQVTVSS | low polyreactivity |
| QDQLVDSGGVLVQAGGSLRLTCAASGSTFARNAMGWYRQAPGKERELVAAISSGGTTNYADSVKARFTISRDNAKNTVYLQMNSLKPEDTAVYYCNAGFRNVLTSGYLYDYWGQGTQVTVSS | low polyreactivity |
| QVQLVDSGGGLVQAGGSLRLSCAASGRTFRHNAMGWYRQAPGKERELVATISNRGGTSYYADSVKGRFTISRDNANNTVYLQMNSLKPEDTAVYYCAARVGVLGYVRYGYWGHGTQVTVSS | low polyreactivity |
| QVQLVESGGGLVQAGGSLRLSCAASGRILDINTMGWYRHPPGKERELVAAITWSGVSTYYADSVKGRFTISRDNAKNTVYLQMNSLKPEDTAVYYCAARPYYTWRYLPTKSGDYWGQGTQVTVSS | low polyreactivity |
| QVQLVESGGGLVQAGASLRLSCAASGRIFSKNAMGWYRQAPGKERELVAAISANTGSTYYADSVKGRFTISRDNAKNTVYLQMNILKPEDTAVYYCATTWTIRRYRYTPRLVDYWGQGTQVTVSS | low polyreactivity |
| QVQLVESGGGLVQAGGSLRLSCAASGLTFPYYAMGWYRQAPGTERELVAVITTSTGTTYYADSVKGRFTMSRDNAKNTVYLQMNSLKPEDTAVYYCATDTGAYWFSLYDYWGQGTQVTVSS | low polyreactivity |
| QVQLVESGGGLVQAGGSLRLSCAASGFTFFYYAMGWYRKAPGKERELVARISSSGGRTYYSDSVKGRFTISRDNAKNTVYLQMNSLKPEDTAVYYCNARYYYYYTRYDYWGQGTQVTVSS | high polyreactivity |
| QVQLVESGGGLVQAGGSLRLSCAASGSTIDGYAMGWYRQAPGKEREFVAAISFSSASTYYADSVKGRFTISRDNAKNTVYLQMNSLKPEDTAVYYCNADFFDSGGSIEYDSWGQGSQVTVSS | low polyreactivity |
| QVQLVESGGGLGQAGGSLRLSCAASGRIVSNAMGWYRQAPGKERELVAAISRRGGSTYYADSVKGRFTISRENAKNTVYLQMNSLIPEDTAVYSCASRPFFTYRWYDYWGQGTQVTVSS | high polyreactivity |
| QVQLVESGGGLVQAGGSLRLSCAASGRTFNPYVMGWYRQAPGKERELVARIRGSGTSTYYADSVKGRFTISRDNAKNTVYLQMNSLKPEDTAVYYCAAAQSKYSFYWGDYYYWGQGTQVTVSS | high polyreactivity |
| QVQLVESGGGLVQAGGSLRLSCADSGSIFGSYATGWYRQAPGKERELVAAITYSGTSTYYADSVKGRFTISRDTAKNTVYLQMNRLKPEDTAVYYCAKRHWFQYRRPDLGRFDYWGQGTQVTVSS | high polyreactivity |
| QVQHVESGGGLVQAGGSLRLSCAASGSNSAYAMGWYRQAPGKERELVAAINSGGSTTYADSVKGRFTISRDNAKNTVYLQMNSLKPEDTAVYSCAARAPSFRYGTSNYPAYRLDYWGQGTQVTVSS | high polyreactivity |
| QVQLVESGGGLVQAGGSLRLSCAASGRISGYKVMGWYRQAPGKERELVAAISGSGGSTYYADSVKGRFTISRDNAKNTVYLQMNSLKPEDTAVYYCAKATAYPYDYWGQGTQVTVSS | low polyreactivity |
| QVQLVESGGGLVQAGGSLRISCAASGSIFRPNAMGRYRQAPGKERELVAAINTSDDSTYYADSVKGRFTISRDNAKNTVYLQMNSLKQEDTAVYYCAAEYYAYPYGDYYDYWGQGTQVTVSS | low polyreactivity |
| QVQLVESGGGLVQAGGSLRLSSAASGFTFPAYTMGWSRQAPGKERELVAAITSSGGNTYYADSVKGRFTISRDNAKNTVYLQMNSLKPEDTAVYYCAADWDYPYDEAVSKDIDYDYWGQGTQVTVSS | low polyreactivity |
| QVQLVESGGGLVQAGGSLRLSCAASGRTFYYYAMGWYRLAPGKERELVAAISNRGGSTYYADSVKGRFTISRDNAKNTVYLQMNCLKPEDTAVYYCARRYSYLYTYGSWGQGPQVTVSS | high polyreactivity |
| QVQLVESGGGLVQAGGSLRLSCAPSGRTFQLYAMGWSRQAPGKERELVAGITITGGSTYYADSVKGRFTISRDNAKNTVYLLMNSLKPEDTAVYYCNKPRFSERYGMGYWGQGTQVTVSS | low polyreactivity |
| QVQLVESGGGLVQAGGSLRLSCAASVRNYGINVMVWYRQAPGKERELVAAISYRTGSTYYADSVKGRFTISRDNAKNTVYLQMNSLKPEDTAVYYCDALRSIRTAWYDYWGQGTQVTVSS | high polyreactivity |

| Sequence | polyreactivity (PSR sort gate) |
| --- | --- |
| QVQLVESGGGLVQAGGSLRLSCAASGSISSVYGMGWYRQAPGKERELVAAITSNGGSTYYADSVKGRFTISRDNAKNTVYLQMNSMKPEDTAVYYCAAKYGSRGYYSRGRYYWGQGTQVTVSS | high polyreactivity |
| QVQLVESGGGLVQAGGSLRLSCAACGFTFYYYAMGWYRQAPGKERELVASISASGGITYYADSVKGRFTISRDNAKNTVYLQMNSLKPEDTAVYYCATRQGYRLYYWGQGTQVNVSS | high polyreactivity |
| QVQLVESGGGLGQAGGSLRLSCAASGITFVVYAMGWYRQAPGKERELVATISSGGSTNYADSVKGRFTISRDNAKNTVYLQMNSLKPEDTAVYYCNRVSVYRSSHLLWGGYWGQGTQVTVSS | low polyreactivity |
| QVQLVESGGGLVQAGGSLRLSCAASGFTFAAYAMGWYRQAPGKESELVAAITSRDGTTYYADSVKGRFTISRNNAKNTVYLQMNSLKPEDTAVYYCAKDHFTWGVSEDDYWRQGTQVTVSS | low polyreactivity |
| QVQLVESGGGLVQAGGSLRLSCAASGRTFYRYAMGWYRQAPGNERELVAAISYSTTRTYYADSVKGRFTISRDNAKNTVYLQMNSLKPEDTAVYYCAAYGWTRFGYDYWGQGTQVTVSS | high polyreactivity |
| QDQLVVSGGGLVHAGGSLRLSCAASGRIFHAYGMGWYRQAPGQERELVAAITWRGVSTYYADSVKGRFTISRDNAKNTVYLQMNSLKPEDTAVYYCAARVTPGRNGGGYWGQGTQVTVSS | high polyreactivity |
| QVQLVESGGGLVQAGGSLRLSCAASGRIYSSYAMGRYRQAPGKERELVAAISYSGDRTYYADSVKGRFTISRDNAKNTVYLQMNSLKPEDTAVYYCAARRVTRTTVYRYQYYYWGQGTQVTVSS | high polyreactivity |
| QVQLVESGGGLVQAGVSLRLSCAASGSIFTQYAMGWSRQAPGKERELVAAISWSGARTYYADSVKGRFTISRDNAKNTVYIQMNSLKPEDTAVYYWAADIIRPVTVDYWGQGTQVTVSS | high polyreactivity |
| QVQLVETGGGLVQAGGSLRLSCAASGSTFWYNAMGWYRQAPGKERELVAAISRSGATTYYADSVKGRFTISRDNAKNTVYLQMNSLKPEDTAVYYCNAVISPSSYVRNSDYWGQGTQVTVSS | low polyreactivity |
| QVQLVESGGGLVQAGGSLRLSCAASGIFSHYALGWYRQAPGKERELVAAISSSGGRTYYADSVKGRFTISRDNAKNTVYLQMNSLKPEDTAVYYCAAPWRSSPYHFYYWGQGTQVTVSS | high polyreactivity |
| QVQLVESGGGLVQAGGSLRLSCAATGSIFNIYTMGRYRQAPGKERELVAVITSSGGKYYADSLKGRFTISRDNAMNTVYLQMNSLKPEDTAVYFCAARRRPYSPHLGYWGQGTQVTVSS | high polyreactivity |
| QVQLVESGGGLVQAGGSLRLSCAASGSIFVWYVMGWYRQAPGKERELVAAITWSAARTYYADSVKGRFTISRDNAKNTVYLQMNSLKPADTAVYYCAADHVSYQPSSRIFDYWGHGTQVTVSS | low polyreactivity |
| QVQLVESGGGLVQAGGSLRLSCAASGNTFSQYAMGWYRQAPGKERELVATISKSSGSTSYADSVKGRFTISRDNAKNTVYLQMNSLKPEDTAVYYCNADSSDVYHHLGVLFFSTWYDYWGQGTQVTVSS | low polyreactivity |
| QVQLVESGGGLVQAGGSLRLSCAASGSTFRYYVMGWYRQEPGKEREFVAAISAGGGRTYYADSVKGRFTISRDNSKNTVYLQMNSLKPEDTAVYYCAATKGNILRRSRYDYWGQGTQVTVSS | high polyreactivity |
| QVQLVESGGGLVQAGGSLRLSCAASGLIFSGYAMGWYRQAPGKERELVAAISRGGGRTSYADSVKGRFTISRDNAKNTVYLQMNSLKPEDTAVYYCAKDPRYLRYEHWGQGSQVTVSS | high polyreactivity |
| QVQLVESGGGLVQAGGSLRLSCAASGRIFPDNAMGWYRQARGKERELVAAMTYSGGSTSYADSVKGRFTISRDNAKNTVYLQMNSLKPEDTAVYYCNKGGGTSYDYVRVDKYPGDYWGQGTQVTVSS | low polyreactivity |
| QVQLVESGGGLVQAGGSLRLSCAASGSTLGWYGMGWSRQAPGKERELVAAIDSGGNTYADSVKGRFTISRDNAKNTVYLQMNSLKPEDTAVYYCAVDGGEFSSYGYWGQGTQVTVSS | low polyreactivity |
| QVQLVESGGGLVQAGGSLRLSCAASGITFDSNAMGWYRQAPGKERELVAVISSSGGSTNYADSVKGRFTISRDNAKNTVYLQMKSLKPEDTAVYYCAADYRFYYTRWEYSFNYWGQGTQVTVSS | high polyreactivity |
| QVQLVESGGGLVQAGGSLRLSCAASGFIFTWYAMGWYRQAPGKEREFVAAITSRGTSTYYADSVKGRFTISRDNAKNTVYLQMNSLKPEDTAVYYCAARASYTRRHVGRPYDYWGQGTQVTVSS | high polyreactivity |
| QVQLVESGGGLVQAGGSLRLSCAASGNTFYGYAMGWYRQAPGKERELVASITLSGDSMYYADSVKGRFTISRDNAKNTVYLQMNSLIPDDTAVYYCNADWYFQYPYDYWGQGTQVSVSS | low polyreactivity |
| QVQLVESGGGLVQAGGSLRLSCAASGFFFSHYAMGWYRQAPGKERVFVATISKRGGSTTYADSVKGRFTISRDNAKNTVYLQMNSLKPEDTAVYYCAATYYRFPSLIAYVRYDYWGQGTQVTVSS | high polyreactivity |
